Laboratory results published in article PMC3814370, “Functional assignment of KEOPS/EKC complex subunits in the biosynthesis of the universal t^6A tRNA modification” (Nucleic Acids Research, 2013).

B1: Pcc1–Kae1 binary complex from Pyrococcus abyssi (complex)
chain 1: MKPKRVQGKIVIEFPSEDIAEVVYTSVLYEHVSVPYRRSRVNFRREGRRIVLEIEANDSSAMRGTVNSYLRWIKVALDVLNI
chain 2: MLALGIEGTAHTLGIGIVSEDKVLANVFDTLTTEKGGIHPKEAAEHHARLMKPLLRKALSEAGVSLDDIDVIAFSQGPGLGPALRVVATAARALAVKYRKPIVGVNHCIAHVEITKMFGVKDPVGLYVSGGNTQVLALEGGRYRVFGETLDIGIGNAIDVFARELGLGFPGGPKVEKLAEKGEKYIELPYAVKGMDLSFSGLLTEAIRKYRSGKYRVEDLAYSFQETAFAALVEVTERAVAHTEKDEVVLVGGVAANNRLREMLRIMTEDRGIKFFVPPYDLCRDNGAMIAYTGLRMYKAGISFRLEETIVKQKFRTDEVEIVW
notes: Pcc1, Pyrococcus abyssi; Kae1, Pyrococcus abyssi; Written as the unit of one Pcc1 and one Kae1 (predicted 45 kDa); Its dimerisation is a row of the complex with itself; also called PK; Kae1–Pcc1; source: E. coli Rosetta2 (DE3) pLysS, co-expressed, purified (heat 65°C, Ni-NTA, Superdex 200)
B2: Bud32–Cgi121 binary complex from Pyrococcus abyssi (complex)
chain 1: MKLIKQGAEAKIYLAEFSELYFDYPIKVIVKERIKKRYRIPEIDLKLRKERTIREARILRRAKEFGVNVPYVFEVDTKNMIIVMEYIEGERLKELLEKLPMEERLKVCREVGRQIGKLHEAGIVHGDLTTSNMILREGKVYFIDFGLAEFDDTIEAQGVDLHLLKRAMESTHYKWFERGFEEVLKGYIEIRGEDKGREIREKIREIELRGRYRERSWITQ
chain 2: MTPKFKNFKHDNSGQVETYLFEVISKYTMLEIKTKFGKLCIAKVKLASESIERALNLCNDNCQIVSAKCHEEVIFATILAIKAFSSGRNTAKTIKGEILLRLAGVKQIKDAIKIIGARKGENLIIYFGVSDPCSSLKDFISSLGLREEPLKPCDEDEVKRGFERAAIIEAL

What was measured:
[1] = biological target: the molecule itself; experiment: SEC; gel filtration of purified proteins and complexes on Superdex 200 in storage buffer (LBs); apparent molecular mass (Supplementary Figure S2)
[2] = biological target: B1; experiment: cell-based or functional assay

Binder | stoichiometry N [1] | t^6A synthesis (14C-L-threonine incorporated into tRNA) by an equimolar mix of the two binary complexes, relative to PaKEOPS [2]
B1 | 2 | 
B2 |  | ~80%
